We go through 17 molecules from paper PMC4784862, “DNA Sequence Determinants Controlling Affinity, Stability and Shape of DNA Complexes Bound by the Nucleoid Protein Fis”.

What all share (conditions): protein: recombinant; chain copies: 2; label: 5'-32P
The target in data set [1] is T1, Fis WT (UniProt P0A6R3 1-98). In words: EMSA; t1/2 8 min; EMSA: 20 mM Hepes pH 7.5, 0.15 M NaCl, 5% glycerol, 0.5 mg/ml BSA, 1 mM EDTA, 1 mM DTT, 0.1 nM 32P 27 bp probe, 50 ug/ml poly dI/dC; temperature not stated. (Mobility shift assays separate free from complexed probe on a gel.)
For data set [2], the target named is T1, Fis WT. As to the kind of experiment: EMSA; EMSA: 20 mM Hepes pH 7.5, 0.15 M NaCl, 5% glycerol, 0.5 mg/ml BSA, 1 mM EDTA, 1 mM DTT, 0.1 nM 32P 27 bp probe, 50 ug/ml poly dI/dC; temperature not stated.
The target of data set [3] is T1, Fis WT. In words: X-ray crystallography; EMSA: 20 mM Hepes pH 7.5, 0.15 M NaCl, 5% glycerol, 0.5 mg/ml BSA, 1 mM EDTA, 1 mM DTT, 0.1 nM 32P 27 bp probe, 50 ug/ml poly dI/dC; temperature not stated.
Data set [4] addresses Fis T75A (UniProt P0A6R3 1-98, T75A). As to the kind of experiment: EMSA; EMSA: 20 mM Hepes pH 7.5, 0.15 M NaCl, 5% glycerol, 0.5 mg/ml BSA, 1 mM EDTA, 1 mM DTT, 0.1 nM 32P 27 bp probe, 50 ug/ml poly dI/dC; temperature not stated.
Data set [5] addresses Fis R71A (UniProt P0A6R3 1-98, R71A). The data set is described as above.
Data set [6] deals with T1, Fis WT. In words: EMSA; t1/2 4 min; EMSA: 20 mM Hepes pH 7.5, 0.15 M NaCl, 5% glycerol, 0.5 mg/ml BSA, 1 mM EDTA, 1 mM DTT, 0.1 nM 32P 27 bp probe, 50 ug/ml poly dI/dC; temperature not stated.
Data set [7] concerns the target T1, Fis WT. In words: EMSA; fold printed as 6; EMSA: 20 mM Hepes pH 7.5, 0.15 M NaCl, 5% glycerol, 0.5 mg/ml BSA, 1 mM EDTA, 1 mM DTT, 0.1 nM 32P 27 bp probe, 50 ug/ml poly dI/dC; temperature not stated.
Data set [8] has as its target T1, Fis WT. As to the kind of experiment: EMSA; t1/2 <0.25 min; EMSA: 20 mM Hepes pH 7.5, 0.15 M NaCl, 5% glycerol, 0.5 mg/ml BSA, 1 mM EDTA, 1 mM DTT, 0.1 nM 32P 27 bp probe, 50 ug/ml poly dI/dC; temperature not stated.
Data set [9] deals with T1, Fis WT. In words: EMSA; t1/2 14 min; EMSA: 20 mM Hepes pH 7.5, 0.15 M NaCl, 5% glycerol, 0.5 mg/ml BSA, 1 mM EDTA, 1 mM DTT, 0.1 nM 32P 27 bp probe, 50 ug/ml poly dI/dC; temperature not stated.

T1 sequence (P0A6R3 whole entry): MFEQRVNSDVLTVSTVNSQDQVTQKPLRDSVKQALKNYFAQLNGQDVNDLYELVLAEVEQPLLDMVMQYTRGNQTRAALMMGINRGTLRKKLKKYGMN
Fis R71A, sequence (P0A6R3 whole entry R71A): as the sequence (P0A6R3 whole entry) above, with R71A counted along it
Fis T75A, sequence (P0A6R3 whole entry T75A): as the sequence (P0A6R3 whole entry) above, with T75A counted along it

B1: F34 (dsDNA)
DNA 1: AAGCTTGTTTGAATTTTGAGCAACGTT
DNA 2: AACGTTGCTCAAAATTCAAACAAGCTT
Consider B1, for which the dissociation constant (Kd) in [1] was determined as 0.2 ± 0.1 nM.

B2: INV±8G (dsDNA)
DNA 1: TTTAAGGTTTGAATTTTGAGCCTTAAA
DNA 2: TTTAAGGCTCAAAATTCAAACCTTAAA
Consider B2, for which the Kd in [2] is 250 ± 20 nM.

B3: F14 (dsDNA)
DNA 1: GGGTTTGTTTGAATTTTGAGCAAACCC
DNA 2: GGGTTTGCTCAAAATTCAAACAAACCC
Consider B3, for which the Kd in data set [2] was 0.5 ± 0.1 nM.

B4: F1±8A (dsDNA)
DNA 1: AAATTAGTTTGAATTTTGAGCTAATTT
DNA 2: AAATTAGCTCAAAATTCAAACTAATTT
Turning to B4, in data set [3], the binding result is recorded as “binds”.

B5: F1±8G (dsDNA)
DNA 1: AAATTGGTTTGAATTTTGAGCCAATTT
DNA 2: AAATTGGCTCAAAATTCAAACCAATTT
In the case of B5, the binding result in data set [3] is reported as “binds”. In addition, the Kd in data set [4] came to 48 ± 5 nM; in [5], 450 ± 20 nM.

B6: F27 (dsDNA)
DNA 1: AAATTTGTTTGAACTTTGAGCAAATTT
DNA 2: AAATTTGCTCAAAGTTCAAACAAATTT
As for B6, the Kd in data set [4] turned out to be 3.5 ± 0.9 nM; in [2], 0.2 ± 0.1 nM; in [5], 2.8 ± 0.5 nM.

B7: INV±8T (dsDNA)
DNA 1: TTTAATGTTTGAATTTTGAGCATTAAA
DNA 2: TTTAATGCTCAAAATTCAAACATTAAA
As to B7, in [6], the Kd turned out to be 2.3 ± 0.7 nM.

B8: F33 (dsDNA)
DNA 1: AAAGGTGTTTGAATTTTGAGCACCTTT
DNA 2: AAAGGTGCTCAAAATTCAAACACCTTT
For the molecule B8, the Kd in data set [7] was determined as 0.6 ± 0.1 nM.

B9: INV±9-10T (dsDNA)
DNA 1: TTTATTGTTTGAATTTTGAGCAATAAA
DNA 2: TTTATTGCTCAAAATTCAAACAATAAA
B9: the Kd in [2] worked out at 0.4 ± 0.1 nM.

B10: F15 (dsDNA)
DNA 1: CCCTTTGTTTGAATTTTGAGCAAAGGG
DNA 2: CCCTTTGCTCAAAATTCAAACAAAGGG
For B10, in data set [2], the equilibrium dissociation constant (Kd) was 0.4 ± 0.2 nM.

B11: F16 (dsDNA)
DNA 1: GCGGTTGTTTGAATTTTGAGCAACCGC
DNA 2: GCGGTTGCTCAAAATTCAAACAACCGC
Consider B11, for which the Kd in data set [2] worked out at 0.5 ± 0.2 nM.

B12: INV (dsDNA)
DNA 1: TTTAAAGTTTGAATTTTGAGCTTTAAA
DNA 2: TTTAAAGCTCAAAATTCAAACTTTAAA
Regarding B12, in [8], the Kd worked out at 33 ± 3 nM.

B13: INV-CAT (dsDNA)
DNA 1: TTTCATGTTTGAATTTTGAGCATGAAA
DNA 2: TTTCATGCTCAAAATTCAAACATGAAA
For the molecule B13, the Kd in [2] worked out at 2.9 ± 1 nM.

B14: F28 (dsDNA)
DNA 1: AAATTTGTTTGAGCGTTGAGCAAATTT
DNA 2: AAATTTGCTCAACGCTCAAACAAATTT
For B14, the Kd in [5] is 470 ± 100 nM.

B15: INV-GAT (dsDNA)
DNA 1: TTTGATGTTTGAATTTTGAGCATCAAA
DNA 2: TTTGATGCTCAAAATTCAAACATCAAA
Take B15: the Kd in [2] was determined as 2 ± 0.6 nM.

B16: F1±8C (dsDNA)
DNA 1: AAATTCGTTTGAATTTTGAGCGAATTT
DNA 2: AAATTCGCTCAAAATTCAAACGAATTT
Take B16: the dissociation constant Kd in data set [9] stood at 0.7 ± 0.2 nM.

B17: INV±8C (dsDNA)
DNA 1: TTTAACGTTTGAATTTTGAGCGTTAAA
DNA 2: TTTAACGCTCAAAATTCAAACGTTAAA
Regarding B17, the Kd in data set [2] was found to be 6 ± 2 nM.

In general, Kd refers to the concentration at which binding is half-saturated.
